In patent US20200377590A1 (Hoffmann-La Roche, published 2020):
Changes are numbered by the printed parent chain.

T1: CD81 (UniProt P60033 1-236, limits assumed)
T1 construct: whole, on cells; also called CD81 receptor
T1 sequence (looked up): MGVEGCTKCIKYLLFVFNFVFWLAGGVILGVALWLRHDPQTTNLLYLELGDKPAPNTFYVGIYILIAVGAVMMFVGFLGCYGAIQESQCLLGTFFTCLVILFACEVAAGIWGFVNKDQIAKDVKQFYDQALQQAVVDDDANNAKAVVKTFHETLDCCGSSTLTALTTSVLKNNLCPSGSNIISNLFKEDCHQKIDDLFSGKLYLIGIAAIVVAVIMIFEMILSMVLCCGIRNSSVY

B1: CD81K13 HC 05-hVH_1_69 / LC CD81K13 (antibody, V domains shown)
VH: QVQLVQSGAEVKKPGSSVKVSCKASGFNFKDSYLHWVRQAPGQGLEWMGRIDTGNGNVKFDPKFQGRVTITTDESTSTAYMELSSLRSEDTAVYYCVPYGYGFHSWGQGTLVTVSS
VL: DIQMTQSPASLSVSVGETVTITCRASENIYRTLAWYLQKQGKSPQLLVYGATTLADGVPSRFSGSGSGTQYYLKINSLQSEDFGTYHCQHFWGTPWTFGGGTKVEIK
notes: human constant region
B2: CD81K13 HC 05-hVH_1_69 / LC 05-hVK_1_39 (antibody, V domains shown)
VH: B1 VH
VL: DIQMTQSPSSLSASVGDRVTITCRASENIYRTLAWYQQKPGKAPKLLIYAATTLASGVPSRFSGSGSGTDFTLTISSLQPEDFATYYCQHFWGTPWTFGQGTKVEIK
notes: human constant region
B3: CD81K13 HC 03-hVH_1_69 / LC 03-hVK_1_9 (antibody, V domains shown)
VH: B1 VH with F60Y, D61A, P62Q, T72A, V97A
VL: B2 VL with M4L, S10F, D70E
notes: human constant region
B4: CD81K13 HC 03-hVH_1_69 / LC 04-hVK_1_9 (antibody, V domains shown)
VH: B1 VH with F60Y, D61A, P62Q, T72A, V97A
VL: B2 VL with M4L, S10F, D70E, A84G
notes: human constant region
B5: CD81K13 HC 03-hVH_1_69 / LC 5b-hVK_1_39 (antibody, V domains shown)
VH: B1 VH with F60Y, D61A, P62Q, T72A, V97A
VL: B2 VL with A50G, S56D
notes: human constant region
B6: CD81K13 HC 03-hVH_1_69 / LC CD81K13 (antibody, V domains shown)
VH: B1 VH with F60Y, D61A, P62Q, T72A, V97A
VL: B1 VL
notes: human constant region
B7: CD81K13 HC 05-hVH_1_69 / LC 5b-hVK_1_39 (antibody, V domains shown)
VH: B1 VH
VL: B2 VL with A50G, S56D
notes: human constant region
B8: CD81K13 HC 5b-hVH_1_69-GA / LC CD81K13 (antibody, V domains shown)
VH: B1 VH with V11L, K12V
VL: B1 VL
notes: human constant region
B9: CD81K13 HC 03-hVH_1_69 / LC 5b-hVK_1_39-GA (antibody, V domains shown)
VH: B1 VH with F60Y, D61A, P62Q, T72A, V97A
VL: B2 VL with A50G, S56D
notes: human constant region
B10: CD81K13 HC 03-hVH_1_69 / LC 06-hVK_1_39 (antibody, V domains shown)
VH: B1 VH with F60Y, D61A, P62Q, T72A, V97A
VL: B2 VL with A84G
notes: human constant region
B11: CD81K13 HC 05-hVH_1_69 / LC 04-hVK_1_9 (antibody, V domains shown)
VH: B1 VH
VL: B2 VL with M4L, S10F, D70E, A84G
notes: human constant region
B12: CD81K13 HC 06-hVH_1_3 / LC CD81K13 (antibody, V domains shown)
VH: B1 VH with S16A, F27Y, N28T, G44R, E74T, T76A, V97A
VL: B1 VL
notes: human constant region
B13: CD81K13 HC 05-hVH_1_69 / LC 03-hVK_1_9 (antibody, V domains shown)
VH: B1 VH
VL: B2 VL with M4L, S10F, D70E
notes: human constant region
B14: CD81K13 HC 05-hVH_1_69 / LC 5b-hVK_1_39-GA (antibody, V domains shown)
VH: B1 VH
VL: B2 VL with A50G, S56D
notes: human constant region
B15: CD81K13 HC 5b-hVH_1_69 / LC CD81K13 (antibody, V domains shown)
VH: B1 VH with V11L, K12V
VL: B1 VL
notes: human constant region
B16: CD81K13 HC 03-hVH_1_69 / LC 05-hVK_1_39 (antibody, V domains shown)
VH: B1 VH with F60Y, D61A, P62Q, T72A, V97A
VL: B2 VL
notes: human constant region
B17: CD81K13 HC 07-hVH_1_3 / LC CD81K13 (antibody, V domains shown)
VH: B1 VH with S16A, F27Y, N28T, E74T, T76A, V97A
VL: B1 VL
notes: human constant region
B18: CD81K13 HC 02-hVH_1_3 / LC 1b-hVK_3_15 (antibody, V domains shown)
VH: QVQLVQSGAEVKKPGASVKVSCKASGYTFTDSYMHWVRQAPGQRLEWMGRIDTGNGNTKYSQKFQGRVTITTDTSASTAYMELSSLRSEDTAVYYCAPYGYGFHSWGQGTLVTVSS
VL: EIVMTQSPATLSVSPGERATLSCRASENIYRTLAWYQQKPGQAPRLLIYGATTLADGIPARFSGSGSGTEFTLTISSLQSEDFAVYYCQHFWGTPWTFGQGTKVEIK
notes: human constant region
B19: CD81K13 HC 02-hVH_1_3 / LC 5b-hVK_1_39-GA (antibody, V domains shown)
VH: B18 VH
VL: B2 VL with A50G, S56D
notes: human constant region
B20: CD81K13 HC 02-hVH_1_3 / LC 03-hVK_1_9 (antibody, V domains shown)
VH: B18 VH
VL: B2 VL with M4L, S10F, D70E
notes: human constant region
B21: CD81K13 HC 05-hVH_1_69 / LC 1c-hVK_3_15 (antibody, V domains shown)
VH: B1 VH
VL: B18 VL with A84G
notes: human constant region
B22: CD81K13 HC 02-hVH_1_3 / LC 06-hVK_1_39 (antibody, V domains shown)
VH: B18 VH
VL: B2 VL with A84G
notes: human constant region
B23: CD81K13 HC 02-hVH_1_3 / LC 5b-hVK_1_39 (antibody, V domains shown)
VH: B18 VH
VL: B2 VL with A50G, S56D
notes: human constant region
B24: CD81K13 HC 02-hVH_1_3 / LC 05-hVK_1_39 (antibody, V domains shown)
VH: B18 VH
VL: B2 VL
notes: human constant region
B25: CD81K13 HC 02-hVH_1_3 / LC 04-hVK_1_9 (antibody, V domains shown)
VH: B18 VH
VL: B2 VL with M4L, S10F, D70E, A84G
notes: human constant region
B26: CD81K13 HC 02-hVH_1_3 / LC 1c-hVK_3_15 (antibody, V domains shown)
VH: B18 VH
VL: B18 VL with A84G
notes: human constant region
B27: CD81K13 HC 06-hVH_1_3 / LC 01-hVK_3_15 (antibody, V domains shown)
VH: B18 VH with T30K, M34L, T58V, Y60F, S61D, Q62P
VL: B18 VL with L54R, D56T, A84G
notes: human constant region
B28: CD81K13 HC 07-hVH_1_3 / LC 1b-hVK_3_15 (antibody, V domains shown)
VH: B1 VH with S16A, F27Y, N28T, E74T, T76A, V97A
VL: B18 VL
notes: human constant region
B29: CD81K13 HC 05-hVH_1_69 / LC 01-hVK_3_15 (antibody, V domains shown)
VH: B1 VH
VL: B18 VL with L54R, D56T, A84G
notes: human constant region
B30: CD81K13 HC 5b-hVH_1_69 / LC 1c-hVK_3_15 (antibody, V domains shown)
VH: B1 VH with V11L, K12V
VL: B18 VL with A84G
notes: human constant region
B31: CD81K13 HC 03-hVH_1_69 / LC 01-hVK_3_15 (antibody, V domains shown)
VH: B1 VH with F60Y, D61A, P62Q, T72A, V97A
VL: B18 VL with L54R, D56T, A84G
notes: human constant region
B32: CD81K13 HC 06-hVH_1_3 / LC 1b-hVK_3_15 (antibody, V domains shown)
VH: B18 VH with T30K, M34L, T58V, Y60F, S61D, Q62P
VL: B18 VL
notes: human constant region
B33: CD81K13 HC 03-hVH_1_69 / LC 1b-hVK_3_15 (antibody, V domains shown)
VH: B1 VH with F60Y, D61A, P62Q, T72A, V97A
VL: B18 VL
notes: human constant region
B34: CD81K13 HC 5b-hVH_1_69-GA / LC 01-hVK_3_15 (antibody, V domains shown)
VH: B1 VH with V11L, K12V
VL: B18 VL with L54R, D56T, A84G
notes: human constant region
B35: CD81K13 HC 5b-hVH_1_69-GA / LC 1c-hVK_3_15 (antibody, V domains shown)
VH: B1 VH with V11L, K12V
VL: B18 VL with A84G
notes: human constant region
B36: CD81K13 HC 07-hVH_1_3 / LC 1c-hVK_3_15 (antibody, V domains shown)
VH: B1 VH with S16A, F27Y, N28T, E74T, T76A, V97A
VL: B18 VL with A84G
notes: human constant region
B37: CD81K13 HC 06-hVH_1_3 / LC 1c-hVK_3_15 (antibody, V domains shown)
VH: B18 VH with T30K, M34L, T58V, Y60F, S61D, Q62P
VL: B18 VL with A84G
notes: human constant region
B38: CD81K13 HC 07-hVH_1_3 / LC 01-hVK_3_15 (antibody, V domains shown)
VH: B1 VH with S16A, F27Y, N28T, E74T, T76A, V97A
VL: B18 VL with L54R, D56T, A84G
notes: human constant region
B39: CD81K13 HC 5b-hVH_1_69-GA / LC 1b-hVK_3_15 (antibody, V domains shown)
VH: B1 VH with V11L, K12V
VL: B18 VL
notes: human constant region
B40: CD81K13 HC 5b-hVH_1_69 / LC 1b-hVK_3_15 (antibody, V domains shown)
VH: B1 VH with V11L, K12V
VL: B18 VL
notes: human constant region
B41: CD81K13 HC 05-hVH_1_69 / LC 1b-hVK_3_15 (antibody, V domains shown)
VH: B1 VH
VL: B18 VL
notes: human constant region
B42: CD81K13 HC 03-hVH_1_69 / LC 1c-hVK_3_15 (antibody, V domains shown)
VH: B1 VH with F60Y, D61A, P62Q, T72A, V97A
VL: B18 VL with A84G
notes: human constant region
B43: CD81K13 HC 5b-hVH_1_69 / LC 01-hVK_3_15 (antibody, V domains shown)
VH: B1 VH with V11L, K12V
VL: B18 VL with L54R, D56T, A84G
notes: human constant region

Molecular target: T1, CD81
Experiment: cell ELISA;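 further: antibody binding to HuH7 cells expressing CD81 versus a CD81-negative HuH7 control line, bound antibody detected by secondary reagent, absorbance at 450 nm with 620 nm reference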
Description: For the binding cell ELISA assay, HuH7-Rluc-H3 (positive cell line expressing CD81) and HuH7-Rluc-L1 (negative control cell line) were propagated in F-12 DMEM medium with 10% FCS at 37° C. and 5% CO₂. On day 1, the cells were trypsinized at approximately 90% confluence and resuspended at 4×10⁵ cells/mL. […] On day 2, the antibody samples to be tested were prepared in a separate polypropylene round bottom plate with a twofold desired concentration with a final volume of 120 μl. All of the assay samples were diluted in cell culture medium. […] After fixation, each well was washed 3 times with 200 μL PBS/0.05% Tween. The secondary incubation step for detection of bound anti-CD81 antibodies was performed for 2 h at room temperature on a reciprocal shaker. […] Each well was washed three times with 200 μL PBS/0.05% Tween to remove unbound antibodies. […] The absorbance was read using the ELISA Tecan reader at 450 nm with 620 nm reference wavelength.

Binder | ELISA data
B1 | 0.94
B2 | 0.91
B3 | 0.208
B4 | 0.188
B5 | 0.546
B6 | 0.787
B7 | 0.692
B8 | 0.935
B9 | 0.552
B10 | 0.484
B11 | 0.685
B12 | 0.447
B13 | 0.787
B14 | 0.551
B15 | 0.813
B16 | 0.525
B17 | 0.572
B18 | 0.347
B19 | 0.247
B20 | 0.13
B21 | 0.767
B22 | 0.251

Binder | ELISA data
B23 | 0.29
B24 | 0.161
B25 | 0.163
B26 | 0.283
B27 | 0.547
B28 | 0.367
B29 | 0.684
B30 | 0.701
B31 | 0.649
B32 | 0.394
B33 | 0.403
B34 | 0.739
B35 | 0.794
B36 | 0.337
B37 | 0.34
B38 | 0.459
B39 | 0.648
B40 | 0.646
B41 | 0.624
B42 | 0.252
B43 | 0.749
